Data taken from patent US20170355766A1 (Xencor, published 2017).

How the values were obtained:
Experiment in all cases: SPR (Biacore)
[1] = molecular target: T1, human FcγRIIb receptor protein (R&D Systems) (human, UniProt P31994 46-217)
T1 construct: Analyte injected over antibodies captured on a protein A/G chip (Biacore); also called CD32b
T1 sequence (looked up): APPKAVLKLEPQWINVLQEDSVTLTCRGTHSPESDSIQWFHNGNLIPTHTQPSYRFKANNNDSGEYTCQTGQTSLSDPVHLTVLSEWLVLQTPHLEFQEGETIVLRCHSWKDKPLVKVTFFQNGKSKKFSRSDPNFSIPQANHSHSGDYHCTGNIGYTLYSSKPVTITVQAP

[2] = molecular target: T2, human V158 FcγRIIIa receptor protein (6xHis and GST tags) (human, UniProt P08637 17-208, limits assumed)
T2 construct: also called VIIIa
T2 sequence (P08637 17-208 F176V limits assumed): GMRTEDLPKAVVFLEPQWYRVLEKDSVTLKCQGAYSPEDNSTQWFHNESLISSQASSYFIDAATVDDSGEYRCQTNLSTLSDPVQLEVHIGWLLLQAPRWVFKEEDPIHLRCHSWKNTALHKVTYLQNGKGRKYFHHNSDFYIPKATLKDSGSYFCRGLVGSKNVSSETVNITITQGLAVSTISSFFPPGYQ

FcγRIIaR = molecular target: T3, FcγRIIaR (human, UniProt P12318)
T3 construct: recombinant receptor protein with 6xHis and GST tags; also called R131 FcγRIIa
T3 sequence (receptor, looked up): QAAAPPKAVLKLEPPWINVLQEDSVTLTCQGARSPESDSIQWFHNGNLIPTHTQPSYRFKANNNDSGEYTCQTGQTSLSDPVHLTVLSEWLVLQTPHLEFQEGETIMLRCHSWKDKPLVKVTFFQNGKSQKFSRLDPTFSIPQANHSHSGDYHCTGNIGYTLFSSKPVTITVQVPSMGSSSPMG

[3] = molecular target: T4, human FcγRI receptor protein (R&D Systems) (human, UniProt P12314 16-288)
T4 construct: also called CD64
T4 sequence (P12314 16-288 limits assumed): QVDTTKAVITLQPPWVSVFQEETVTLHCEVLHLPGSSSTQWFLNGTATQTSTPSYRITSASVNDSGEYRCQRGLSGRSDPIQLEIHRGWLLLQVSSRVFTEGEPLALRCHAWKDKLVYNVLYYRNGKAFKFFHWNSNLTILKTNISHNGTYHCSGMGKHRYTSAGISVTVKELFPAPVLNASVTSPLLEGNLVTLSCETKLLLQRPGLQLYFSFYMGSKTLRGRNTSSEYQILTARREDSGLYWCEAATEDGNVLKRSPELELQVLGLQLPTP

[4] = molecular target: T5, human H131 FcγRIIa receptor protein (6xHis and GST tags) (human, UniProt P12318 34-217, limits assumed)
T5 construct: also called HIIa
T5 sequence (looked up): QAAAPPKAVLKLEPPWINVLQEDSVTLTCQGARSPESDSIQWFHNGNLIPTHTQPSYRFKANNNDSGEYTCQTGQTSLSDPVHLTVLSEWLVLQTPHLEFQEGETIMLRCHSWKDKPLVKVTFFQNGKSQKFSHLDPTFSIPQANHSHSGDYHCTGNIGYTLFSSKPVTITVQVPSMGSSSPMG

Binder | Fold FcγRIIb [1] [fold] | binding result [2] | Fold FcγRIIaR (FcγRIIaR) [fold] | Fold FcγRI [3] [fold] | Fold FcγRIIaH [4] [fold] | binding result [4] | Fold FcγRIIIaV [2] [fold]
G236D/S267E/H268E (antibody, human IgG1, kappa, HuAM4G7 IgG1 Fc variant) heavy: EVQLVESGGGLVKPGGSLKLSCAASGYTFTSYVMHWVRQAPGKGLEWIGYINPYNDGTKYNEKFQGRVTISSDKSISTAYMELSSLRSEDTAMYYCARGTYYYGTRVFDYWGQGTLVTVSSASTKGPSVFPLAPSSKSTSGGTAALGCLVKDYFPEPVTVSWNSGALTSGVHTFPAVLQSSGLYSLSSVVTVPSSSLGTQTYICNVNHKPSNTKVDKKVEPKSCDKTHTCPPCPAPELLDGPSVFLFPPKPKDTLMISRTPEVTCVVVDVEEEDPEVKFNWYVDGVEVHNAKTKPREEQYNSTYRVVSVLTVLHQDWLNGKEYKCKVSNKALPAPIEKTISKAKGQPREPQVYTLPPSREEMTKNQVSLTCLVKGFYPSDIAVEWESNGQPENNYKTTPPVLDSDGSFFLYSKLTVDKSRWQQGNVFSCSVMHEALHNHYTQKSLSLSPGK light: DIVMTQSPATLSLSPGERATLSCRSSKSLQNVNGNTYLYWFQQKPGQSPQLLIYRMSNLNSGVPDRFSGSGSGTEFTLTISSLEPEDFAVYYCMQHLEYPITFGAGTKLEIKRTVAAPSVFIFPPSDEQLKSGTASVVCLLNNFYPREAKVQWKVDNALQSGNSQESVTEQDSKDSTYSLSSTLTLSKADYEKHKVYACEVTHQGLSSPVTKSFNRGEC | 110 | no binding | 29.9 | 0.0902 | 0.103 |  | 
G236D/S267E/L328F (antibody, human IgG1, kappa, HuAM4G7 IgG1 Fc variant) heavy: EVQLVESGGGLVKPGGSLKLSCAASGYTFTSYVMHWVRQAPGKGLEWIGYINPYNDGTKYNEKFQGRVTISSDKSISTAYMELSSLRSEDTAMYYCARGTYYYGTRVFDYWGQGTLVTVSSASTKGPSVFPLAPSSKSTSGGTAALGCLVKDYFPEPVTVSWNSGALTSGVHTFPAVLQSSGLYSLSSVVTVPSSSLGTQTYICNVNHKPSNTKVDKKVEPKSCDKTHTCPPCPAPELLDGPSVFLFPPKPKDTLMISRTPEVTCVVVDVEHEDPEVKFNWYVDGVEVHNAKTKPREEQYNSTYRVVSVLTVLHQDWLNGKEYKCKVSNKAFPAPIEKTISKAKGQPREPQVYTLPPSREEMTKNQVSLTCLVKGFYPSDIAVEWESNGQPENNYKTTPPVLDSDGSFFLYSKLTVDKSRWQQGNVFSCSVMHEALHNHYTQKSLSLSPGK light: DIVMTQSPATLSLSPGERATLSCRSSKSLQNVNGNTYLYWFQQKPGQSPQLLIYRMSNLNSGVPDRFSGSGSGTEFTLTISSLEPEDFAVYYCMQHLEYPITFGAGTKLEIKRTVAAPSVFIFPPSDEQLKSGTASVVCLLNNFYPREAKVQWKVDNALQSGNSQESVTEQDSKDSTYSLSSTLTLSKADYEKHKVYACEVTHQGLSSPVTKSFNRGEC | 149 | no binding | 59.9 | 0.0736 | 0.0301 |  | 
G236N/S267E (antibody, human IgG1, kappa, HuAM4G7 IgG1 Fc variant) heavy: not shown light: DIVMTQSPATLSLSPGERATLSCRSSKSLQNVNGNTYLYWFQQKPGQSPQLLIYRMSNLNSGVPDRFSGSGSGTEFTLTISSLEPEDFAVYYCMQHLEYPITFGAGTKLEIKRTVAAPSVFIFPPSDEQLKSGTASVVCLLNNFYPREAKVQWKVDNALQSGNSQESVTEQDSKDSTYSLSSTLTLSKADYEKHKVYACEVTHQGLSSPVTKSFNRGEC | 19.8 | no binding | 3.27 | 0.0355 |  | no binding | 
G237A (antibody, human IgG1, kappa, HuAM4G7 IgG1 Fc variant) heavy: not shown light: DIVMTQSPATLSLSPGERATLSCRSSKSLQNVNGNTYLYWFQQKPGQSPQLLIYRMSNLNSGVPDRFSGSGSGTEFTLTISSLEPEDFAVYYCMQHLEYPITFGAGTKLEIKRTVAAPSVFIFPPSDEQLKSGTASVVCLLNNFYPREAKVQWKVDNALQSGNSQESVTEQDSKDSTYSLSSTLTLSKADYEKHKVYACEVTHQGLSSPVTKSFNRGEC | 0.191 | no binding | 0.704 | 0.0108 |  | no binding | 
G237D/S267E (antibody, human IgG1, kappa, HuAM4G7 IgG1 Fc variant) heavy: not shown light: DIVMTQSPATLSLSPGERATLSCRSSKSLQNVNGNTYLYWFQQKPGQSPQLLIYRMSNLNSGVPDRFSGSGSGTEFTLTISSLEPEDFAVYYCMQHLEYPITFGAGTKLEIKRTVAAPSVFIFPPSDEQLKSGTASVVCLLNNFYPREAKVQWKVDNALQSGNSQESVTEQDSKDSTYSLSSTLTLSKADYEKHKVYACEVTHQGLSSPVTKSFNRGEC | 17 | no binding | 13.6 | 0.0874 |  | no binding | 
H268D (antibody, human IgG1, kappa, HuAM4G7 IgG1 Fc variant) heavy: not shown light: DIVMTQSPATLSLSPGERATLSCRSSKSLQNVNGNTYLYWFQQKPGQSPQLLIYRMSNLNSGVPDRFSGSGSGTEFTLTISSLEPEDFAVYYCMQHLEYPITFGAGTKLEIKRTVAAPSVFIFPPSDEQLKSGTASVVCLLNNFYPREAKVQWKVDNALQSGNSQESVTEQDSKDSTYSLSSTLTLSKADYEKHKVYACEVTHQGLSSPVTKSFNRGEC | 3.06 |  | 4.19 | 2.35 | 1.89 |  | 3.08
H268E (antibody, human IgG1, kappa, HuAM4G7 IgG1 Fc variant) heavy: not shown light: DIVMTQSPATLSLSPGERATLSCRSSKSLQNVNGNTYLYWFQQKPGQSPQLLIYRMSNLNSGVPDRFSGSGSGTEFTLTISSLEPEDFAVYYCMQHLEYPITFGAGTKLEIKRTVAAPSVFIFPPSDEQLKSGTASVVCLLNNFYPREAKVQWKVDNALQSGNSQESVTEQDSKDSTYSLSSTLTLSKADYEKHKVYACEVTHQGLSSPVTKSFNRGEC | 2.62 |  | 3.19 | 2.74 | 1.43 |  | 2.19
L234E/S267E (antibody, human IgG1, kappa, HuAM4G7 IgG1 Fc variant) heavy: not shown light: DIVMTQSPATLSLSPGERATLSCRSSKSLQNVNGNTYLYWFQQKPGQSPQLLIYRMSNLNSGVPDRFSGSGSGTEFTLTISSLEPEDFAVYYCMQHLEYPITFGAGTKLEIKRTVAAPSVFIFPPSDEQLKSGTASVVCLLNNFYPREAKVQWKVDNALQSGNSQESVTEQDSKDSTYSLSSTLTLSKADYEKHKVYACEVTHQGLSSPVTKSFNRGEC | 15.1 | no binding | 10.7 | 0.131 |  | no binding | 
L234E/S267E/L328F (antibody, human IgG1, kappa, HuAM4G7 IgG1 Fc variant) heavy: EVQLVESGGGLVKPGGSLKLSCAASGYTFTSYVMHWVRQAPGKGLEWIGYINPYNDGTKYNEKFQGRVTISSDKSISTAYMELSSLRSEDTAMYYCARGTYYYGTRVFDYWGQGTLVTVSSASTKGPSVFPLAPSSKSTSGGTAALGCLVKDYFPEPVTVSWNSGALTSGVHTFPAVLQSSGLYSLSSVVTVPSSSLGTQTYICNVNHKPSNTKVDKKVEPKSCDKTHTCPPCPAPEELGGPSVFLFPPKPKDTLMISRTPEVTCVVVDVEHEDPEVKFNWYVDGVEVHNAKTKPREEQYNSTYRVVSVLTVLHQDWLNGKEYKCKVSNKAFPAPIEKTISKAKGQPREPQVYTLPPSREEMTKNQVSLTCLVKGFYPSDIAVEWESNGQPENNYKTTPPVLDSDGSFFLYSKLTVDKSRWQQGNVFSCSVMHEALHNHYTQKSLSLSPGK light: DIVMTQSPATLSLSPGERATLSCRSSKSLQNVNGNTYLYWFQQKPGQSPQLLIYRMSNLNSGVPDRFSGSGSGTEFTLTISSLEPEDFAVYYCMQHLEYPITFGAGTKLEIKRTVAAPSVFIFPPSDEQLKSGTASVVCLLNNFYPREAKVQWKVDNALQSGNSQESVTEQDSKDSTYSLSSTLTLSKADYEKHKVYACEVTHQGLSSPVTKSFNRGEC | 195 | no binding | 174 | 0.0425 | 0.0725 |  | 
